Target: T1, yeast eIF3j (Hcr1) (yeast, UniProt Q05775 1-265)
T1 construct: source: E. coli Rosetta2 (DE3), pGEX-6P-1, purified (GSTrap, PreScission cleavage, second glutathione step, Superdex S-75)
Assay: ITC; VP-ITC; 20 µL aliquots of 229 µM eIF3b-RRM^76–170 injected into the cell with 10 µM Hcr1; 200 mM NaCl, 10 mM Hepes pH 7.5, 5% glycerol; single binding site model
Conditions: both partners purified

T1 sequence (Q05775 whole entry): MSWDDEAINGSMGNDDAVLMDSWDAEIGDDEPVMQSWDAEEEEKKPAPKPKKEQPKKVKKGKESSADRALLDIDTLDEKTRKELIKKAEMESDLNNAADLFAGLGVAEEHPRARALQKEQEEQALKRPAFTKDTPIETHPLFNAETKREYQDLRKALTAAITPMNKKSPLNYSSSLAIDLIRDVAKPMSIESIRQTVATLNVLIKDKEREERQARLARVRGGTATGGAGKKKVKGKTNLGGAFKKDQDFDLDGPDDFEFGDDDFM

B1: yeast eIF3b-RRM, residues 76-170 (domain or fragment, UniProt P06103 76-170, looked up)
chain: DQYIVVNGAPVIPSAKVPVLKKALTSLFSKAGKVVNMEFPIDEATGKTKGFLFVECGSMNDAKKIIKSFHGKRLDLKHRLFLYTMKDVERYNSDD
notes: also called eIF3b-RRM^76–170; RRM^76–170; source: E. coli Rosetta2 (DE3), pGEX-6P-1, purified (GSTrap, PreScission cleavage, Superdex S-75)
Q: B1 was tested. Which Kd did it give?
A: 7.5 ± 0.5 µM

Q: And the dH?
A: -9.28 ± 0.217 kcal/mol

Q: What about the “stoichiometry N” value of the same binder?
A: ~1

Reference: publication PMC2940854, “Crystal Structure of the RNA Recognition Motif of Yeast Translation Initiation Factor eIF3b Reveals Differences to Human eIF3b” (PLoS ONE, 2010)
